Source: patent US20150344570A1 (published 2015)
Values belong to the binder of their own block, whether it stands above or below them.

Legend:
[1] = target: T1, FcγRIa extracellular domain with C-terminal His tag (human, UniProt P12314 16-292); assay: ratio He/Con_1a : He/Con_2b (FcγRIa over FcγRIIb), SPR (Biacore)
T1 construct: extracellular domain; Soluble receptor used as analyte in Biacore; also called FcgRI

[2] = target: T1, FcγRIa extracellular domain with …; assay: SPR (Biacore), antibody captured, FcγR as analyte; binding relative to GpH7-A5/GpH7-B3/GpL16-k0 = 100
[3] = target: T2, FcγRIIb extracellular domain with C-terminal His tag (human, UniProt P31994 43-217); assay: as above
T2 construct: extracellular domain; Soluble receptor used as analyte in Biacore; also called FcgRIIb
T2 sequence (looked up): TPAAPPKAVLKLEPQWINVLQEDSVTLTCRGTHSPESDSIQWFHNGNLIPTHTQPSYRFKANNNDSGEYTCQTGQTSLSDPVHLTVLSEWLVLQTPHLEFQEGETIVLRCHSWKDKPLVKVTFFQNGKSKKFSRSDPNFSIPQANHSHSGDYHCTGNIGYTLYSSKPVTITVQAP

[4] = target: T3, FcγRIIb extracellular domain with C-terminal His tag (human, UniProt P31994 43-217); assay: SPR (Biacore), antibody captured on antigen peptide chip, FcγR as analyte; relative binding
T3 construct: extracellular domain; also called FcgRIIb; 2b; not shown: His tag attached to the C terminus
T3 sequence (looked up): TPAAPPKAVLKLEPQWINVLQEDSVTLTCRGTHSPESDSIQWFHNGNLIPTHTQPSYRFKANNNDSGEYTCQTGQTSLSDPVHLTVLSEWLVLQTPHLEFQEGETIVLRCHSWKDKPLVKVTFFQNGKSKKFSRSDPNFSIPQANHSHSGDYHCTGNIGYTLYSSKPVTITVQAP
Description: (§1) The heterodimerized antibodies He Abs in which one of the H chains was introduced with an alteration were assayed for their binding activities to each activating FcγR and inhibitory FcγR according to the method described in Example 4. […] The activating FcγRs in FIGS. 26, 27, 28, and 29 are FcγRIa, FcγRIIa (R), FcγRIIa (H), and FcγRIIIa, respectively.
(§2) Analysis of interaction between objective antibody and the FcγR was carried out using Biacore T100 (GE Healthcare). HBS-EP+ (GE Healthcare) was used as the running buffer, and the measurement temperature was set to 25° C. Chips produced by immobilizing the antigen peptide by the amine coupling method to a Series S Sencor Chip CM5 (GE Healthcare), or alternatively, chips produced by allowing preliminarily biotinylated antigen peptides to interact with and immobilize onto a Series S Sensor Chip SA (certified) (GE Healthcare) were used. Antibodies of interest were captured onto an antigen peptide-immobilized chip, and allowed to interact to each FcγR diluted with running buffer. To regenerate and repeatedly use the chip, the antibodies captured on the chip were washed off by reacting 10 mM glycine-HCl, pH 1.5.

[5] = target: T4, FcγRIIIa extracellular domain with C-terminal His tag (human, UniProt P08637 17-208); assay: as above
T4 construct: extracellular domain; also called FcgRIIIa; 3a; not shown: His tag attached to the C terminus
T4 sequence (P08637 17-208): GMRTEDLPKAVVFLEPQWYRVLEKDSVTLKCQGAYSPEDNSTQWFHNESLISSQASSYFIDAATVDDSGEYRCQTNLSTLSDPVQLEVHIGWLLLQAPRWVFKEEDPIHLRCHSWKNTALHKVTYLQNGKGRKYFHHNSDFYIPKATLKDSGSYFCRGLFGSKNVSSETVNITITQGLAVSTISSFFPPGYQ
Description: as §1, §2

T1 sequence (P12314 16-292): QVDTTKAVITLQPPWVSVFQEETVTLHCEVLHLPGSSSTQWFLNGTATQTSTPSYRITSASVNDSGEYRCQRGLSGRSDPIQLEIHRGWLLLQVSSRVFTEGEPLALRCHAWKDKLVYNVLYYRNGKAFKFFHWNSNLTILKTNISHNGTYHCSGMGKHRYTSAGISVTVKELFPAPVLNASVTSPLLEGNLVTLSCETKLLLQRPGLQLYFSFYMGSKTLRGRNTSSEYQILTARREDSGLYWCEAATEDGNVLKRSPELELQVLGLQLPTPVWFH

B1: GpH7-A5/GpH7-B3 variant A327_09D/GpL16-k0 (antibody, human IgG1, kappa)
heavy 1: not shown
heavy 2: not shown
light: DIVMTQSPLSLPVTPGEPASISCQASESLVHSNRNTYLHWYLQKPGQSPQLLIYKVSNRFSGVPDRFSGSGSGTDFTLKISRVEAEDVGVYYCSQNTHVPPTFGQGTKVEIERTVAAPSVFIFPPSDEQLKSGTASVVCLLNNFYPREAKVQWKVDNALQSGNSQESVTEQDSKDSTYSLSSTLTLSKADYEKHKVYACEVTHQGLSSPVTKSFNRGEC
notes: Heterodimerized IgG1, mutation in the GpH7-B3 chain only; also called He Ab
He_1a/2b (Ia/IIb) [1]: 0.6
He/Con_1a [2]: 103 control = 100
He/Con_2b [3]: 172 control = 100

B2: GpH7-A5/GpH7-B3 variant L328_07I/GpL16-k0 (He Ab) (antibody, human IgG1, kappa)
heavy 1: not shown
heavy 2: not shown
light: DIVMTQSPLSLPVTPGEPASISCQASESLVHSNRNTYLHWYLQKPGQSPQLLIYKVSNRFSGVPDRFSGSGSGTDFTLKISRVEAEDVGVYYCSQNTHVPPTFGQGTKVEIERTVAAPSVFIFPPSDEQLKSGTASVVCLLNNFYPREAKVQWKVDNALQSGNSQESVTEQDSKDSTYSLSSTLTLSKADYEKHKVYACEVTHQGLSSPVTKSFNRGEC
notes: Heterodimerized antibody with the alteration in one H chain only
He/Con_2b [4]: 160 % of GpH7-A5/GpH7-B3/GpL16-k0 (=100)
He/Con_3a [5]: 84 % of GpH7-A5/GpH7-B3/GpL16-k0 (=100)

B3: GpH7-A5/GpH7-B3 variant A330_05P/GpL16-k0 (antibody, human IgG1, kappa)
heavy 1: not shown
heavy 2: not shown
light: DIVMTQSPLSLPVTPGEPASISCQASESLVHSNRNTYLHWYLQKPGQSPQLLIYKVSNRFSGVPDRFSGSGSGTDFTLKISRVEAEDVGVYYCSQNTHVPPTFGQGTKVEIERTVAAPSVFIFPPSDEQLKSGTASVVCLLNNFYPREAKVQWKVDNALQSGNSQESVTEQDSKDSTYSLSSTLTLSKADYEKHKVYACEVTHQGLSSPVTKSFNRGEC
notes: as for B1
He_1a/2b (Ia/IIb) [1]: 0.74
He/Con_1a [2]: 101 control = 100
He/Con_2b [3]: 137 control = 100

Continued, values first:

He/Con_2b [4]: 199 % of GpH7-A5/GpH7-B3/GpL16-k0 (=100)
He/Con_3a [5]: 47.8 % of GpH7-A5/GpH7-B3/GpL16-k0 (=100)
B4: GpH7-A5/GpH7-B3 variant L328_09D/GpL16-k0 (He Ab) (antibody, human IgG1, kappa)
heavy 1: not shown
heavy 2: not shown
light: DIVMTQSPLSLPVTPGEPASISCQASESLVHSNRNTYLHWYLQKPGQSPQLLIYKVSNRFSGVPDRFSGSGSGTDFTLKISRVEAEDVGVYYCSQNTHVPPTFGQGTKVEIERTVAAPSVFIFPPSDEQLKSGTASVVCLLNNFYPREAKVQWKVDNALQSGNSQESVTEQDSKDSTYSLSSTLTLSKADYEKHKVYACEVTHQGLSSPVTKSFNRGEC
notes: as for B2

He/Con_2b [4]: 114 % of GpH7-A5/GpH7-B3/GpL16-k0 (=100)
He/Con_3a [5]: 66 % of GpH7-A5/GpH7-B3/GpL16-k0 (=100)
B5: GpH7-A5/GpH7-B3 variant P331_07I/GpL16-k0 (He Ab) (antibody, human IgG1, kappa)
heavy 1: not shown
heavy 2: not shown
light: DIVMTQSPLSLPVTPGEPASISCQASESLVHSNRNTYLHWYLQKPGQSPQLLIYKVSNRFSGVPDRFSGSGSGTDFTLKISRVEAEDVGVYYCSQNTHVPPTFGQGTKVEIERTVAAPSVFIFPPSDEQLKSGTASVVCLLNNFYPREAKVQWKVDNALQSGNSQESVTEQDSKDSTYSLSSTLTLSKADYEKHKVYACEVTHQGLSSPVTKSFNRGEC
notes: as for B2

He/Con_2b [4]: 114 % of GpH7-A5/GpH7-B3/GpL16-k0 (=100)
He/Con_3a [5]: 81.9 % of GpH7-A5/GpH7-B3/GpL16-k0 (=100)
B6: GpH7-A5/GpH7-B3 variant P331_15Y/GpL16-k0 (He Ab) (antibody, human IgG1, kappa)
heavy 1: not shown
heavy 2: not shown
light: DIVMTQSPLSLPVTPGEPASISCQASESLVHSNRNTYLHWYLQKPGQSPQLLIYKVSNRFSGVPDRFSGSGSGTDFTLKISRVEAEDVGVYYCSQNTHVPPTFGQGTKVEIERTVAAPSVFIFPPSDEQLKSGTASVVCLLNNFYPREAKVQWKVDNALQSGNSQESVTEQDSKDSTYSLSSTLTLSKADYEKHKVYACEVTHQGLSSPVTKSFNRGEC
notes: as for B2

He/Con_2b [4]: 116 % of GpH7-A5/GpH7-B3/GpL16-k0 (=100)
He/Con_3a [5]: 80.2 % of GpH7-A5/GpH7-B3/GpL16-k0 (=100)
B7: GpH7-A5/GpH7-B3 variant P331_16H/GpL16-k0 (He Ab) (antibody, human IgG1, kappa)
heavy 1: not shown
heavy 2: not shown
light: DIVMTQSPLSLPVTPGEPASISCQASESLVHSNRNTYLHWYLQKPGQSPQLLIYKVSNRFSGVPDRFSGSGSGTDFTLKISRVEAEDVGVYYCSQNTHVPPTFGQGTKVEIERTVAAPSVFIFPPSDEQLKSGTASVVCLLNNFYPREAKVQWKVDNALQSGNSQESVTEQDSKDSTYSLSSTLTLSKADYEKHKVYACEVTHQGLSSPVTKSFNRGEC
notes: as for B2
